Laboratory results: publication PMC11514473, “The transition state for coupled folding and binding of a disordered DNA binding domain resembles the unbound state” (Nucleic Acids Research, 2024)

Columns and labels:
[1] = biological target: T1, CREB 285bZIP wild type (pseudo-WT, Cys to Ser) (human, UniProt P16220-1 285-339, C300S;C310S;C337S); assay: stopped-flow fluorescence (koff/kon); koff 2.531 s-1; kon 6.7 nM-1 s-1; 10 mM Mg2+; 10 mM MES pH 6.5, 150 mM NaCl, 10 mM MgCl2, 0.05% Tween-20, 25 C; NMR: 10 mM Tris-d11, 150 mM NaCl, 10 mM MgCl2, 1 mM NaN3, 5% D2O (NOE at 25 C); conditions: protein: recombinant; tags: extra N-terminal Gly after TEV cleavage; His6-GB1 removed; chain copies: 2; label: 5' Alexa Fluor 488; hairpin (self-annealing, 11 bp stem, CCCC loop)
T1 sequence: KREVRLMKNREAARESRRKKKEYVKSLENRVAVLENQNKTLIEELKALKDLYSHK

[2] = biological target: T1, CREB 285bZIP wild type (pseudo-WT, Cys …); assay: stopped-flow fluorescence (koff/kon); koff 2.44 s-1 averaged over competitor concentrations; 10 mM Mg2+; 10 mM MES pH 6.5, 150 mM NaCl, 10 mM MgCl2, 0.05% Tween-20, 25 C; NMR: 10 mM Tris-d11, 150 mM NaCl, 10 mM MgCl2, 1 mM NaN3, 5% D2O (NOE at 25 C); conditions: protein: recombinant; tags: extra N-terminal Gly after TEV cleavage; His6-GB1 removed; chain copies: 2; label: 5' Alexa Fluor 488; hairpin (self-annealing, 11 bp stem, CCCC loop)
285bZIP V288G = biological target: T2, 285bZIP V288G (human, UniProt P16220-1 285-339, C300S;C310S;C337S;V288G); assay: stopped-flow fluorescence (koff/kon); 10 mM Mg2+; 10 mM MES pH 6.5, 150 mM NaCl, 10 mM MgCl2, 0.05% Tween-20, 25 C; NMR: 10 mM Tris-d11, 150 mM NaCl, 10 mM MgCl2, 1 mM NaN3, 5% D2O (NOE at 25 C); conditions: protein: recombinant; tags: extra N-terminal Gly; chain copies: 2; label: 5' Alexa Fluor 488; hairpin (self-annealing, 11 bp stem, CCCC loop)
T2 sequence: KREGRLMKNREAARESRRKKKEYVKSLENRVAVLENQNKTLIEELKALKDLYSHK

285bZIP M291G = biological target: T3, 285bZIP M291G (human, UniProt P16220-1 285-339, C300S;C310S;C337S;M291G); assay: as above; conditions: protein: recombinant; tags: extra N-terminal Gly; chain copies: 2; label: 5' Alexa Fluor 488; hairpin (self-annealing, 11 bp stem, CCCC loop)
T3 sequence: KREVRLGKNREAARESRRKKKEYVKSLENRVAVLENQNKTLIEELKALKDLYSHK

285bZIP K309A = biological target: T4, 285bZIP K309A (human, UniProt P16220-1 285-339, C300S;C310S;C337S;K309A); assay: as above; conditions: protein: recombinant; tags: extra N-terminal Gly; chain copies: 2; label: 5' Alexa Fluor 488; hairpin (self-annealing, 11 bp stem, CCCC loop)
T4 sequence: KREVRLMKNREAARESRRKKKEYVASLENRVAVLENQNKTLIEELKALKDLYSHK

285bZIP E299A/E306A = biological target: T5, 285bZIP E299A/E306A (human, UniProt P16220-1 285-339, C300S;C310S;C337S;E299A;E306A); assay: as above; conditions: protein: recombinant; tags: extra N-terminal Gly; chain copies: 2; label: 5' Alexa Fluor 488; hairpin (self-annealing, 11 bp stem, CCCC loop)
T5 sequence: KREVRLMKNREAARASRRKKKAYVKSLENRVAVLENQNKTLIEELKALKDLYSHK

285bZIP E299G = biological target: T6, 285bZIP E299G (human, UniProt P16220-1 285-339, C300S;C310S;C337S;E299G); assay: as above; conditions: protein: recombinant; tags: extra N-terminal Gly; chain copies: 2; label: 5' Alexa Fluor 488; hairpin (self-annealing, 11 bp stem, CCCC loop)
T6 sequence: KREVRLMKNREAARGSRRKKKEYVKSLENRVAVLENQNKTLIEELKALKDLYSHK

285bZIP E306A = biological target: T7, 285bZIP E306A (human, UniProt P16220-1 285-339, C300S;C310S;C337S;E306A); assay: as above; conditions: protein: recombinant; tags: extra N-terminal Gly; chain copies: 2; label: 5' Alexa Fluor 488; hairpin (self-annealing, 11 bp stem, CCCC loop)
T7 sequence: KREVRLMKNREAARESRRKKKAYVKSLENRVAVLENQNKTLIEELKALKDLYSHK

285bZIP E295G = biological target: T8, 285bZIP E295G (human, UniProt P16220-1 285-339, C300S;C310S;C337S;E295G); assay: as above; conditions: protein: recombinant; tags: extra N-terminal Gly; chain copies: 2; label: 5' Alexa Fluor 488; hairpin (self-annealing, 11 bp stem, CCCC loop)
T8 sequence: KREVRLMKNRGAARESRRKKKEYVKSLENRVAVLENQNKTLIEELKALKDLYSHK

285bZIP K309G = biological target: T9, 285bZIP K309G (human, UniProt P16220-1 285-339, C300S;C310S;C337S;K309G); assay: as above; conditions: protein: recombinant; tags: extra N-terminal Gly; chain copies: 2; label: 5' Alexa Fluor 488; hairpin (self-annealing, 11 bp stem, CCCC loop)
T9 sequence: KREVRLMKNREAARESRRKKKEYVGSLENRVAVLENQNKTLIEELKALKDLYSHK

Q: For CCTGACGTCAGCCCCCTGACGTCAGG (structured_DNA) [AlexaFluor488-CREh], which Kd [1] is on record?
A: 0.38 ± 0.03 nM

Q: What about the Kd [2] of the same binder?
A: 0.36 ± 0.04 nM

Q: And the Kd (285bZIP V288G)?
A: 2.77 ± 0.16 nM

Q: And the Kd (285bZIP M291G)?
A: 5.2 ± 0.7 nM

Q: And the Kd (285bZIP K309A)?
A: 2.12 ± 0.08 nM

Q: And the Kd (285bZIP E299A/E306A)?
A: 0.0415 ± 0.0008 nM

Q: What about the Kd (285bZIP E299G) of the same binder?
A: 2.72 ± 0.15 nM

Q: And the Kd (285bZIP E306A)?
A: 0.139 ± 0.012 nM

Q: And the Kd (285bZIP E295G)?
A: 6 ± 0.4 nM

Q: And the Kd (285bZIP K309G)?
A: 26 ± 2 nM
